Experimental data published in publication PMC2741138 (Journal of molecular biology, 2008).
Where “and” joins values, the source holds several entries; their conditions need not be identical. Identical values can stand only once. Like-named read-outs stand apart in the source and are kept apart here.

Experiments:
Assay in all cases: kinase competition assay
SRPK1 [1] = target: SRPK1 (UniProt Q96SB4)
SRPK1 [2] = target: T1, SRPK1 (UniProt Q96SB4 1-655)
SRPK1 [3] = target: T1, SRPK1; remark: listed apart in the source

T1 sequence (Q96SB4 whole entry): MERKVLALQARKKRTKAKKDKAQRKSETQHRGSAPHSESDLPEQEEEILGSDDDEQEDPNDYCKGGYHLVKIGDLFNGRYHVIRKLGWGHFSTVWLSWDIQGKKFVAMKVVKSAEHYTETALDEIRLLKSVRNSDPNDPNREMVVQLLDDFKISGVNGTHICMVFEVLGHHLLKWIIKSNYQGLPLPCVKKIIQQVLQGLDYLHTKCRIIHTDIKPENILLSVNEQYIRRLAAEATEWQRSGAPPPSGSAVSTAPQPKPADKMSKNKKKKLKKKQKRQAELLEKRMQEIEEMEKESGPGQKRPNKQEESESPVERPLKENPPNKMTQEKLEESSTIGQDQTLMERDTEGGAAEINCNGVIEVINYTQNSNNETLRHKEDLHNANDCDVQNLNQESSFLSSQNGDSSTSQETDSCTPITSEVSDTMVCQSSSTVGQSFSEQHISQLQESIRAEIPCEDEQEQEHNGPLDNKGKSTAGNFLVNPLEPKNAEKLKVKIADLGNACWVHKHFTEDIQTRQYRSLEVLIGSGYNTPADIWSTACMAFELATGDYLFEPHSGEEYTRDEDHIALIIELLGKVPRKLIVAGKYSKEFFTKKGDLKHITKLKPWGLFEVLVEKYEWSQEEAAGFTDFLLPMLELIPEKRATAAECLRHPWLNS
Chain of SRPK1 (UniProt Q96SB4) (Q96SB4 whole entry): as above

**Q.** For “Block 1/2 (from UniProt Q07955 1-248) (natural protein)”, which Ki (SRPK1 [1]) is on record?
**A.** 40 nM

**Q.** Which Ki (SRPK1 [1]) does the source give for “Block 3/4 (from UniProt Q07955 1-248) (natural protein)” here?
**A.** 120 nM

**Q.** How did the Ki (SRPK1 [1]) turn out when ASF(ΔRS2) (domain or fragment) was run?
**A.** 170 nM

**Q.** How did the Ki (SRPK1 [1]) turn out when “Block 2/3 (from UniProt Q07955 1-248) (natural protein)” was run?
**A.** 45 nM

**Q.** For ASF(ΔRS) (domain or fragment), which Ki (SRPK1 [1]) is on record?
**A.** 180 nM

B1: ASF(ΔRRM1)-His (domain or fragment)
chain: GGAPRGRYGPPSRRSENRVVVSGLPPSGSWQDLKDHMREAGDVCYADVYRDGTGVVEFVRKEDMTYAVRKLDNTKFRSHEGETAYIRVKVDGPRSPSYGRSRSRSRSRSRSRSRSNSRSRSYSPRRSRGSPRYSPRHSRSRSRT
**Q.** For B1, which Ki (SRPK1 [2]) is on record?
**A.** 54 ± 5 nM

B2: ASF(ΔRRM12)-His (domain or fragment)
chain: GPRSPSYGRSRSRSRSRSRSRSRSNSRSRSYSPRRSRGSPRYSPRHSRSRSRT
**Q.** For B2, which Ki (SRPK1 [2]) is on record?
**A.** 70 ± 15 nM

B3: ASF(RS12)-His (domain or fragment)
chain: PRSPSYGRSRSRSRSRSRSRSRSNSRSRSYSPRRSRGSPRYSPRHSRSRSRT
**Q.** B3 was tested. Which Ki (SRPK1 [2]) did it give?
**A.** 190 ± 13 nM

B4: (RS)8 (peptide)
chain: RSRSRSRSRSRSRSRS
modifications: Expanded from the printed formula (RS)8; any flanking residues or end caps are not stated
**Q.** B4 was tested. Which Ki (SRPK1 [3]) did it give?
**A.** 1800 nM and 1600 nM

B5: (RS)16 (peptide)
chain: RSRSRSRSRSRSRSRSRSRSRSRSRSRSRSRS
modifications: Expanded from the printed formula (RS)16; any flanking residues or end caps are not stated
**Q.** With B5 as the molecule, how does the Ki (SRPK1 [3]) read?
**A.** 160 ± 41 nM

B6: ASF(RRM2) (domain or fragment)
chain: NRVVVSGLPPSGSWQDLKDHMREAGDVCYADVYRDGTGVVEFVRKEDMTYAVRKLDNTKFRSHEGETAYIRVKVDGPRSPSYG
**Q.** With B6 as the molecule, how does the Ki (SRPK1 [3]) read?
**A.** 6300 ± 1900 nM

B7: ASF(RRM1) (domain or fragment)
chain: MSGGGVIRGPAGNNDCRIYVGNLPPDIRTKDIEDVFYKYGAIRDIDLKNRRGGPPFAFVEFEDPRDAEDAVYGRDGYDYDGYRLRVEFPRS
**Q.** Which Ki (SRPK1 [3]) does the source give for B7 here?
**A.** 1600 ± 400 nM
